Results reported in article doi:10.1101/2023.11.08.566319.

Molecular target: T33-51 protein cage subunit B
Test: native MS; SEC-purified co-expressed cage, 2 uM in 200 mM ammonium acetate pH 7.4; Q Exactive UHMR
Settings: scale: copies of A with 12 copies of B in the cage

stoichiometry N: 11
Substance: T33-51 protein cage subunit A (designed binder)
